Target: mCherry-PEX5(TPR) (human) (UniProt P50542)
Assay: FRET or BRET; flowFRET competition in living pex5-/- MEF; mCherry-PEX5(TPR) as acceptor, EGFP-PTS1(SCP2) as donor, Cerulean-tagged protein as competitor; apparent KD1^app and KD2^app by fitting, plotted as Log10(KD2^app)/Log10(KD1^app)

Substance: Cerulean-PTS1(SCP2) (peptide)
- Log10(KD2^app)/Log10(KD1^app) against the donor EGFP-PTS1(SCP2): 1

Reference: PMC9669585
